Experimental data from patent US20110028686A1, “Protein binding miniature proteins” (Yale University, priority 2000, published 2011).
Square brackets hold non-standard residues; d marks the D form. Primed or numbered codes have the meaning given here. Ends that are not written are not given here. acetamidofluorescein″ = acetamidofluorescein (5-iodoacetamidofluorescein attached to the C-terminal Cys); pS = N[C@@H](COP(=O)(O)O)C(=O)O; Sar = CNCC(=O)O

Assays:
GST-KIXY650A = GST-KIXY650A (UniProt P45481); assay: FP, 25 nM fluorescein-labelled peptide titrated with GST-KIXY650A, 25 C
FP with CBP KIX = substrate: CBP KIX, wild type (Example 20) (UniProt P45481); assay: FP with CBP KIX
[1] = substrate: CBP KIX, wild type (Example 20) (UniProt P45481); assay: FP, fluorescein-labelled PPKID4^P variant titrated with CBP KIX

Sequence of CBP KIX, wild type (Example 20) (P45481 586-665 limits assumed): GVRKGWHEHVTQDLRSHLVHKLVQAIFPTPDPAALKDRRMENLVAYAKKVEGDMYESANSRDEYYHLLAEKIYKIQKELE
Sequence of GST-KIXY650A (P45481 586-665 Y650A): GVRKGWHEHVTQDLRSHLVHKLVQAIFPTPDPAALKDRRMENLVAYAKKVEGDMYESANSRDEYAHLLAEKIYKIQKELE

fold less stable than the wild type GST-KIX complex (GST-KIXY650A)	ΔΔG relative to wild type PPKID4^P (FP with CBP KIX)	Kd [1]	Binder
15 fold	–	–	TDSQKRREILSRRP[pS]YRKILNDLSSDAPGVC-NH2 (also: C-terminal Cys acetamidofluorescein-labelled in direct assays, unlabelled as competitor) [KID-AB^P]
–	0.16 kcal/mol	800 nM	GPSQ[Sar]TYPGDDAPVRRL[pS]FFYILLDLYLDAPGVC(acetamidofluorescein″)-NH2 (designed binder) [PPKID4^P P5Z]
–	0.15 kcal/mol	780 nM	GPSQPTY[Sar]GDDAPVRRL[pS]FFYILLDLYLDAPGVC(acetamidofluorescein″)-NH2 (designed binder) [PPKID4^P P8Z]
–	0.18 kcal/mol	830 nM	G[Sar]SQPTYPGDDAPVRRL[pS]FFYILLDLYLDAPGVC(acetamidofluorescein″)-NH2 (designed binder) [PPKID4^P P2Z]
